Test results reported in the Immune Epitope Database (IEDB).
Each block holds one sequence with its values, some of them ahead of it.

Columns and labels:
HLA-A*01:01 = experiment: IEDB peptide-MHC binding, purified MHC/direct/fluorescence; filed as Kd, often an IC50 or EC50 that approximates it; ≥ and ≤ were set here for values at or beyond the usual limits of such assays
HLA-A*24:03 = experiment: as above; details: source organism: Camelpox virus M-96
HLA-A*69:01 = experiment: as above
HLA-A*31:01 = experiment: as above
HLA-B*15:01 [1] = experiment: as above
HLA-B*58:01 = experiment: as above
HLA-A*26:03 = experiment: as above; details: source organism: Variola virus
HLA-B*08:02 = experiment: as above; details: source organism: Variola virus
HLA-A*26:01 = experiment: as above
HLA-A*11:01 = experiment: as above
HLA-A*68:02 = experiment: IEDB peptide-MHC binding, purified MHC/competitive/fluorescence; filed as Kd, often an IC50 or EC50 that approximates it; ≥ and ≤ were set here for values at or beyond the usual limits of such assays; details: source organism: Variola virus
HLA-A*26:02 = experiment: as above; details: source organism: Variola virus
HLA-B*57:01 [2] = experiment: as above; details: source organism: Variola virus
HLA-B*07:02 [3] = experiment: as above; details: source organism: Variola virus
HLA-A*02:01 [4] = experiment: as above; details: source organism: Variola virus
HLA-B*18:01 = experiment: as above; details: source organism: Variola virus
HLA-B*15:17 [5] = experiment: as above; details: source organism: Variola virus
HLA-B*08:01 [6] = experiment: as above; details: source organism: Variola virus
HLA-C*06:02 = experiment: IEDB peptide-MHC binding, purified MHC/direct/fluorescence; filed as Kd, often an IC50 or EC50 that approximates it; ≥ and ≤ were set here for values at or beyond the usual limits of such assays
HLA-C*07:02 = experiment: as above
HLA-B*44:02 = experiment: as above; details: source organism: Vibrio cholerae
HLA-B*27:05 [7] = experiment: as above
HLA-B*07:02 [8] = experiment: as above; details: source organism: Vibrio cholerae
HLA-A*30:01 = experiment: as above; details: source organism: Vibrio cholerae
HLA-A*02:01 [9] = experiment: as above
HLA-B*40:01 = experiment: as above
HLA-A*03:01 = experiment: as above
HLA-B*08:01 [10] = experiment: as above; details: source organism: Vibrio cholerae
HLA-B*73:01 = experiment: IEDB peptide-MHC binding, purified MHC/competitive/fluorescence; filed as Kd, often an IC50 or EC50 that approximates it; ≥ and ≤ were set here for values at or beyond the usual limits of such assays
HLA-B*15:09 = experiment: IEDB peptide-MHC binding, purified MHC/direct/fluorescence; filed as Kd, often an IC50 or EC50 that approximates it; ≥ and ≤ were set here for values at or beyond the usual limits of such assays; details: source organism: Mycobacterium tuberculosis str. Haarlem
HLA-B*57:01 [11] = experiment: as above; details: source organism: Mycobacterium tuberculosis
HLA-B*51:01 = experiment: as above; details: source organism: Mycobacterium tuberculosis
HLA-B*48:01 [12] = experiment: as above; details: source organism: Mycobacterium tuberculosis
HLA-B*46:01 = experiment: as above; details: source organism: Mycobacterium tuberculosis
HLA-B*15:17 [13] = experiment: as above; details: source organism: Mycobacterium tuberculosis
HLA-B*83:01 = experiment: IEDB peptide-MHC binding, purified MHC/competitive/fluorescence; filed as Kd, often an IC50 or EC50 that approximates it; ≥ and ≤ were set here for values at or beyond the usual limits of such assays; details: source organism: Mycobacterium tuberculosis C
HLA-B*15:42 = experiment: as above; details: source organism: Mycobacterium tuberculosis C
HLA-B*15:01 [14] = experiment: as above; details: source organism: Mycobacterium tuberculosis C
HLA-B*45:06 = experiment: as above; details: source organism: Mycobacterium tuberculosis C
HLA-A*32:15 = experiment: as above; details: source organism: Mycobacterium tuberculosis C
HLA-C*04:01 = experiment: IEDB peptide-MHC binding, purified MHC/direct/fluorescence; filed as Kd, often an IC50 or EC50 that approximates it; ≥ and ≤ were set here for values at or beyond the usual limits of such assays; details: source organism: Homo sapiens
HLA-B*27:05 [15] = experiment: IEDB peptide-MHC binding, purified MHC/competitive/fluorescence; filed as Kd, often an IC50 or EC50 that approximates it; ≥ and ≤ were set here for values at or beyond the usual limits of such assays; details: source organism: Encephalitozoon cuniculi GB-M1
HLA-B*48:01 [16] = experiment: as above; details: source organism: Encephalitozoon cuniculi GB-M1
[17] = source organism: Camelpox virus M-96
[18] = source organism: Vibrio vulnificus CMCP6
[19] = source organism: Vibrio cholerae
[20] = source organism: Mycobacterium tuberculosis
[21] = source organism: Encephalitozoon cuniculi GB-M1

Sequence: EYKKFIATF
Kd (HLA-A*01:01; [17]): ≥ 20 µM
Kd (HLA-A*24:03): 0.032 µM
Kd (HLA-A*69:01; [17]): ≥ 20 µM
Kd (HLA-A*31:01; [17]): ≥ 20 µM
Kd (HLA-B*15:01 [1]; [17]): ≥ 20 µM
Kd (HLA-B*58:01; source organism: Variola virus): 0.256 µM
Kd (HLA-A*26:03): ≥ 20 µM
Kd (HLA-B*08:02): ≥ 20 µM
Kd (HLA-A*26:01; source organism: Variola virus): ≥ 20 µM
Kd (HLA-A*11:01; [17]): ≥ 20 µM
Kd (HLA-A*68:02): ≥ 20 µM
Kd (HLA-A*26:02): 0.818 µM
Kd (HLA-B*57:01 [2]): 4.85 µM
Kd (HLA-B*07:02 [3]): 3 µM
Kd (HLA-A*02:01 [4]): ≥ 20 µM
Kd (HLA-B*18:01): 0.0583 µM
Kd (HLA-B*15:17 [5]): 0.865 µM
Kd (HLA-B*08:01 [6]): ≥ 20 µM

Sequence: FMIVNNFPV
Kd (HLA-C*06:02; [18]): 0.633 µM
Kd (HLA-C*07:02; [18]): 1.01 µM

Sequence: GKFFAQAFL
Kd (HLA-A*01:01; [19]): ≥ 20 µM
Kd (HLA-A*69:01; [19]): ≥ 20 µM
Kd (HLA-A*31:01; [19]): ≥ 20 µM
Kd (HLA-B*44:02): ≥ 20 µM
Kd (HLA-B*27:05 [7]; [19]): 1.29 µM
Kd (HLA-B*07:02 [8]): ≥ 20 µM
Kd (HLA-B*15:01 [1]; [19]): ≥ 20 µM
Kd (HLA-B*58:01; [19]): ≥ 20 µM
Kd (HLA-A*30:01): 0.753 µM
Kd (HLA-A*02:01 [9]; [19]): ≥ 20 µM
Kd (HLA-A*26:01; [19]): ≥ 20 µM
Kd (HLA-B*40:01; [19]): ≥ 20 µM
Kd (HLA-A*03:01; [19]): ≥ 20 µM
Kd (HLA-B*08:01 [10]): ≥ 20 µM
Kd (HLA-A*11:01; [19]): ≥ 20 µM
Kd (HLA-B*73:01; [19]): ≥ 20 µM

Sequence: LPAEVRAAF
Kd (HLA-A*01:01; [20]): 4.61 µM
Kd (HLA-B*15:09): ≥ 20 µM
Kd (HLA-A*69:01; [20]): 1.31 µM
Kd (HLA-A*31:01; [20]): ≥ 20 µM
Kd (HLA-B*57:01 [11]): ≥ 20 µM
Kd (HLA-B*51:01): ≥ 20 µM
Kd (HLA-B*27:05 [7]; [20]): ≥ 20 µM
Kd (HLA-B*58:01; [20]): ≥ 20 µM
Kd (HLA-A*02:01 [9]; [20]): ≥ 20 µM
Kd (HLA-B*48:01 [12]): ≥ 20 µM
Kd (HLA-A*26:01; source organism: Mycobacterium tuberculosis str. Haarlem): 0.889 µM
Kd (HLA-B*40:01; [20]): ≥ 20 µM
Kd (HLA-A*03:01; [20]): ≥ 20 µM
Kd (HLA-B*46:01): ≥ 20 µM
Kd (HLA-B*15:17 [13]): ≥ 20 µM
Kd (HLA-A*11:01; [20]): ≥ 20 µM
Kd (HLA-B*83:01): 0.0676 µM
Kd (HLA-B*15:42): ≥ 5 µM
Kd (HLA-B*15:01 [14]): ≥ 20 µM
Kd (HLA-B*45:06): ≥ 5 µM
Kd (HLA-A*32:15): 0.757 µM

Sequence: RKKLRPRWL
Kd (HLA-C*06:02; source organism: dengue virus type 1): ≥ 20 µM

Sequence: SDFFDRLQV
Kd (HLA-B*73:01; source organism: Cryptosporidium parvum Iowa II): ≥ 20 µM

Sequence: SRDYYRHKV
Kd (HLA-B*73:01; source organism: Clostridium novyi NT): 3.62 µM

Sequence: WYDALCVLL
Kd (HLA-C*04:01): 0.035 µM

Sequence: YFYYNAFHW
Kd (HLA-C*07:02; source organism: Homo sapiens): 2.06 µM
Kd (HLA-C*04:01): ≥ 20 µM

Kd (HLA-C*06:02; [21]): 0.01 µM
Kd (HLA-B*27:05 [15]): 0.0012 µM
Kd (HLA-B*73:01; [21]): 0.0851 µM
Kd (HLA-B*48:01 [16]): ≥ 20 µM
Sequence: YRFNLRRKM

Kd (HLA-C*07:02; source organism: Homo sapiens): 0.715 µM
Sequence: YYNAFHWAI
